Here are results for one substance from patent US20250249113.

Series [1] relates to Compound 7: DM1-Mal-Phe-Cit-Phe-Lys(PEG4-Mal-Cys-Ac)-OH.
The subject of series [2] is Compound 11: DM1-Mcc-Phe-Cit-Lys(PEG5-Ma-Cys-Ac)-Tyr-OH.
In series [3] the test system is Compound 12: DM1-Mcc-Cit-Lys(PEG5-Ma-Cys-Ac)-Tyr-OH.
The subject of series [4] is Compound 8: AF-Cit-Lys(PEG4-Mal-Cys-Ac)-Phe-OH.
Series [5] relates to Compound 6: DM1-Mal-Phe-Cit-Lys(PEG4-Mal-Cys-Ac)-Phe-OH.
Series [6] concerns Compound 1: AF-Arg-Lys(PEG4-Mal-Cys-Ac)-Phe-OH.
In series [7] the test system is Compound 3: AF-Arg-Phe-Lys(PEG4-Mal-Cys-Ac)-OH.
Series [8] relates to Compound 5: DM1-Mal-Phe-Lys-Lys(PEG4-Mal-Cys-Ac)-Phe-OH.

Turning to recombinant human Cathepsin B, the Ratio (T1/2 Compound/T1/2 Reference), Cat B-induced cleavage was 0.09 in series [1]; 0.005 in series [2]; 4e-05 in series [3]; 0.09 in series [4]; 0.02 in series [5]; 0.12 in series [6]. The Ratio (T1/2 Compound/T1/2 Reference), Cat B-induced cleavage stood at 0.11 in series [7] and 0.05 in series [8]. Further, the T1/2 Compound (min), Cat B-induced cleavage worked out at 1.2 min in series [1]; 0.06 min in series [2]; 0.0004 min in series [3]; 1.1 min in series [4]; 0.3 min in series [5]; 1.5 min in series [6]. Also, the T1/2 Compound (min), Cat B-induced cleavage worked out at 1.4 min in series [7] and 0.6 min in series [8]. For the same substance, the “T1/2 of cleavage by exo-Cat B” value is “compounds 11 and 12 are spontaneously cleaved by exo-Cat B (T1/2≤1 min)” in series [2]; “compounds 11 and 12 are spontaneously cleaved by exo-Cat B (T1/2≤1 min)” in series [3].
